The source of these data is patent publication US8080531B2, “Methods for modulating checkpoint activation through TopBP1” (California Institute of Technology, priority 2006, dated 2011).

Data set [1] deals with Xatr-Xatrip (Xenopus laevis, UniProt Q9DE14). The data set can be described thus: Kinase assay of Xatr-Xatrip complexes isolated from Xenopus egg extracts. The class given is biochemical. More on the design: increase of kinase activity of Xatr; other: Xatr immunoprecipitated from Xatrip-depleted extracts. An excerpt: (§1) Specifically, Applicants first isolated Xatr from egg extracts by pull-downs with FLAG-tagged Xenopus ATRIP (Xatrip). For these experiments, Applicants used both full-length Xatrip and an N-terminal truncation mutant (ΔN222) that supports normal Xatr-dependent activation of Xchk1 in egg extracts (Kumagai et al., 2004; Kim et al., 2005).
(§2) Applicants eluted the beads with FLAG peptide and mixed the eluates with a His6-tagged version of XtopBP1 that had been purified from baculovirus-infected insect cells (FIG. 1B). Finally, Applicants added ^32P-ATP and PHAS-I, a commonly used model substrate for ATR (Abraham, 2001).
Xatrip-FLAG and XatripΔN222-FLAG (20 ng/μl each) were incubated in interphase extracts containing anti-FLAG M2 antibody beads (Sigma) for 60 min at room temperature. The beads were isolated and washed twice with buffer A (10 mM HEPES-KOH (pH 7.5), 150 mM NaCl, 0.1% CHAPS, and 2.5 mM EGTA) and twice with HEPES-buffered saline (HBS; 10 mM HEPES-KOH (pH 7.5) and 150 mM NaCl). Xatr-Xatrip complexes were eluted in one-tenth the volume of the egg extract in HBS containing 0.1 mg/ml 3×-FLAG peptide (Sigma) for 60 min at 4° C. Eluates (2 μl) were used for kinase assays as described below. […]

Data set [2] has as its system Xchk1. The data set can be described thus: Checkpoint-dependent phosphorylation of Xchk1 in XtopBP1-depleted egg extracts with aphidicolin and sperm nuclei. It is filed as biochemical, Xenopus. To be noted: added back to XtopBP1-depleted extract, aphidicolin. An excerpt: Applicants proceeded to remove endogenous XtopBP1 from egg extracts by immunodepletion with anti-XtopBP1 antibodies (FIG. 7C). In parallel, Applicants used control antibodies to prepare mock-depleted extract. Next, Applicants added back wild-type His6-XtopBP1 or the His6-XtopBP1-W1138R mutant to aliquots of the XtopBP1-depleted extract. Finally, Applicants added aphidicolin and demembranated Xenopus sperm nuclei to the various extracts in order to create stalled replication forks and then examined phosphorylation of Xchk1 (FIG. 7D).
(§3) Extracts from Xenopus eggs were prepared as described (Kumagai and Dunphy, 2000). A DNA replication checkpoint response was induced by addition of 50 μg/ml aphidicolin into extracts containing demembranated sperm nuclei (3000 per μl) (Kumagai and Dunphy, 2000). To monitor DNA replication, extracts containing 1000 sperm nuclei/μl were incubated with [α-^32P]dATP (Yoo et al., 2004).
Xatr and Xatrip were immunodepleted as described (Kumagai et al., 2004). For immunodepletion of XtopBP1, we incubated 100 μl egg extract twice for 60 min with 10 μl Affiprep protein A beads (BioRad) containing 35 μg anti-XtopBP1 antibodies.

The test system of data set [3] is Xatr-Xatrip. The data set can be described thus: Kinase assay of Xatr-Xatrip complexes isolated from Xenopus egg extracts. The class given is biochemical. To be noted: for activation of Xatr kinase activity toward PHAS-I: isolated Xatr-Xatrip complexes, 32P-ATP, result in words.
Source text: as §1, §2
Xatrip-FLAG and XatripΔN222-FLAG (20 ng/μl each) were incubated in interphase extracts containing anti-FLAG M2 antibody beads (Sigma) for 60 min at room temperature. The beads were isolated and washed twice with buffer A (10 mM HEPES-KOH (pH 7.5), 150 mM NaCl, 0.1% CHAPS, and 2.5 mM EGTA) and twice with HEPES-buffered saline (HBS; 10 mM HEPES-KOH (pH 7.5) and 150 mM NaCl). Xatr-Xatrip complexes were eluted in one-tenth the volume of the egg extract in HBS containing 0.1 mg/ml 3×-FLAG peptide (Sigma) for 60 min at 4° C. Eluates (2 μl) were used for kinase assays as described below.
(§4) Samples were incubated in 20 μl kinase buffer (50 mM Tris-HCl (pH 7.5), 10 mM MgCl2, 1 mM dithiothreitol, 100 μM nonradioactive ATP, and 100 μCi/ml [γ-^32P]ATP) containing 12.5 μg/ml PHAS-I or 50 μg/ml GST-Xmcm2 (62-122) for 30 min at room temperature. GST-XtopBP1 (972-1279) was added at a final concentration of 100 μg/ml unless indicated otherwise. In some cases, GST-Xmcm2 (62-122), GST-Xchk1 (306-352), or full-length Xchk1-Myc-His6 were used as substrates with only […] nonradioactive ATP. Reactions were terminated by boiling in gel sample buffer.

The test system of another data set is human Mcm2 on S108. The data set is described as follows: Phosphorylation of Mcm2 on S108 in transfected human 293T cells. The class given is cell-based. The note with it: immunoblotting. An excerpt:
To pursue this issue further, Applicants asked whether the ATR-activating domain of TopBP1 could induce ATR-dependent phosphorylation in human cells. For this purpose, Applicants constructed a version of the enhanced green fluorescent protein (EGFP) containing the SV40 nuclear localization sequence and residues 978-1286 of human TopBP1 (equivalent to residues 972-1279 of XtopBP1). Applicants also produced the W1145R mutant of this plasmid (analogous to the W1138R mutant of XtopBP1). Applicants transfected plasmids encoding these proteins into human 293T cells and performed immunoblotting with anti-phosphopeptide antibodies that detect phosphorylation of human Mcm2 on S108 (which corresponds to S92 of Xmcm2) (Cortez et al., 2004; Yoo et al., 2004).
pEGFP-NLS-TopBP1 (978-1286), which encodes EGFP followed by a nuclear localization sequence (KKKRKV, SEQ ID NO: 11) and amino acids 978-1286 of human TopBP1, was prepared from pEGFP (Clontech) by standard polymerase chain reaction-based methods. Plasmids were transfected into 293T cells with Lipofectamine 2000 (Invitrogen).

Data set [4] concerns human ATR. The data set can be described thus: Kinase assay of recombinant human FLAG-ATR against S92 of GST-Xmcm2 (62-122). It is filed as biochemical. To be noted: kinase-deficient human FLAG-ATR. The protocol:
(§5) Specifically, Applicants isolated wild-type and kinase-deficient versions of FLAG-tagged human ATR from nuclear extracts of U2OS cells that conditionally express these proteins (FIG. 5C). The recombinant ATR proteins were purified with anti-FLAG magnetic beads under conditions that preserve the binding of endogenous ATRIP (Ünsal-Kacmaz and Sancar, 2004). Next, Applicants incubated both the wild-type and kinase-deficient FLAG-ATR preparations in the absence or presence of GST-XtopBP1 (972-1279), and measured kinase activity against S92 of the GST-Xmcm2 (62-122) peptide.
as §4
(§6) U2OS cells conditionally expressing wild-type (GW33) or kinase-deficient (GK41) human FLAG-ATR were cultured as described (Nghiem et al., 2001). Cells were induced with 1 μg/ml doxycycline for 48 hr. Nuclear extracts were prepared as described (Dignam et al., 1983) except that nuclei were lysed by brief sonication and the concentration of NaCl in the nuclear isolation buffer was reduced to 350 mM in order to preserve the binding of endogenous ATRIP to recombinant ATR. FLAG-ATR proteins were isolated by an overnight incubation with anti-FLAG antibodies bound to protein G-magnetic beads (Dynal) and eluted with 3×-FLAG peptide.

In data set [5] the target is T1, human ATR (Homo sapiens, UniProt Q13535).
T1 construct: expressed in transfected cells; host or cells: U2OS GW33 cells (doxycycline-inducible), nuclear extract, anti-FLAG purification
The data set is described as above. To be noted: wild-type human FLAG-ATR from U2OS nuclear extracts. It is filed as biochemical. The protocol:
as §5, §4, §6

In data set [6] the test system is Xchk1. The data set can be described thus: Ectopic phosphorylation of 35S-Xchk1 in Xenopus egg extracts without checkpoint-inducing DNA. The class given is biochemical. The note with it: 35S-Xchk1, tautomycin, no checkpoint-inducing DNA template. The protocol: Because the GST-XtopBP1 (972-1279) fragment could activate Xatr in vitro without the inclusion of DNA, Applicants reasoned that ectopic addition of this fragment to Xenopus egg extracts might also be able to trigger the Xatr-dependent phosphorylation of Xchk1 even in the absence of a checkpoint-inducing DNA template.
as §3

For data set [7], the system named is Xatr-Xatrip. The data set can be described thus: Glutathione bead pull-down of Xatr and Xatrip from egg extracts. The class given is binding, Xenopus. The note with it: egg extracts, immunoblotting. Here is the method:
Specifically, Applicants incubated glutathione beads containing GST-XtopBP1 (972-1279) in egg extracts, reisolated the beads, and performed immunoblotting for both Xatr and Xatrip. […] In addition, in other experiments, there was no binding of Xatr or Xatrip to beads containing GST fusions of the 1-348, 333-646, or 623-984 segments from XtopBP1 (data not shown).
Applicants also tested to see if the association of XtopBP1 with Xatr depends upon Xatrip. For this experiment, Applicants removed endogenous Xatrip from egg extracts by immunodepletion with anti-Xatrip antibodies. As described previously, this procedure leaves behind approximately 30% of the endogenous Xatr, the fraction that is not in a complex with Xatrip (Kumagai et al., 2004). Next, Applicants added GST-XtopBP1 (972-1279) to the Xatrip-depleted extracts and to mock-depleted extracts that had been prepared in parallel.

Chain of Xatr-Xatrip (Q9DE14 whole entry, the tested form may be a part): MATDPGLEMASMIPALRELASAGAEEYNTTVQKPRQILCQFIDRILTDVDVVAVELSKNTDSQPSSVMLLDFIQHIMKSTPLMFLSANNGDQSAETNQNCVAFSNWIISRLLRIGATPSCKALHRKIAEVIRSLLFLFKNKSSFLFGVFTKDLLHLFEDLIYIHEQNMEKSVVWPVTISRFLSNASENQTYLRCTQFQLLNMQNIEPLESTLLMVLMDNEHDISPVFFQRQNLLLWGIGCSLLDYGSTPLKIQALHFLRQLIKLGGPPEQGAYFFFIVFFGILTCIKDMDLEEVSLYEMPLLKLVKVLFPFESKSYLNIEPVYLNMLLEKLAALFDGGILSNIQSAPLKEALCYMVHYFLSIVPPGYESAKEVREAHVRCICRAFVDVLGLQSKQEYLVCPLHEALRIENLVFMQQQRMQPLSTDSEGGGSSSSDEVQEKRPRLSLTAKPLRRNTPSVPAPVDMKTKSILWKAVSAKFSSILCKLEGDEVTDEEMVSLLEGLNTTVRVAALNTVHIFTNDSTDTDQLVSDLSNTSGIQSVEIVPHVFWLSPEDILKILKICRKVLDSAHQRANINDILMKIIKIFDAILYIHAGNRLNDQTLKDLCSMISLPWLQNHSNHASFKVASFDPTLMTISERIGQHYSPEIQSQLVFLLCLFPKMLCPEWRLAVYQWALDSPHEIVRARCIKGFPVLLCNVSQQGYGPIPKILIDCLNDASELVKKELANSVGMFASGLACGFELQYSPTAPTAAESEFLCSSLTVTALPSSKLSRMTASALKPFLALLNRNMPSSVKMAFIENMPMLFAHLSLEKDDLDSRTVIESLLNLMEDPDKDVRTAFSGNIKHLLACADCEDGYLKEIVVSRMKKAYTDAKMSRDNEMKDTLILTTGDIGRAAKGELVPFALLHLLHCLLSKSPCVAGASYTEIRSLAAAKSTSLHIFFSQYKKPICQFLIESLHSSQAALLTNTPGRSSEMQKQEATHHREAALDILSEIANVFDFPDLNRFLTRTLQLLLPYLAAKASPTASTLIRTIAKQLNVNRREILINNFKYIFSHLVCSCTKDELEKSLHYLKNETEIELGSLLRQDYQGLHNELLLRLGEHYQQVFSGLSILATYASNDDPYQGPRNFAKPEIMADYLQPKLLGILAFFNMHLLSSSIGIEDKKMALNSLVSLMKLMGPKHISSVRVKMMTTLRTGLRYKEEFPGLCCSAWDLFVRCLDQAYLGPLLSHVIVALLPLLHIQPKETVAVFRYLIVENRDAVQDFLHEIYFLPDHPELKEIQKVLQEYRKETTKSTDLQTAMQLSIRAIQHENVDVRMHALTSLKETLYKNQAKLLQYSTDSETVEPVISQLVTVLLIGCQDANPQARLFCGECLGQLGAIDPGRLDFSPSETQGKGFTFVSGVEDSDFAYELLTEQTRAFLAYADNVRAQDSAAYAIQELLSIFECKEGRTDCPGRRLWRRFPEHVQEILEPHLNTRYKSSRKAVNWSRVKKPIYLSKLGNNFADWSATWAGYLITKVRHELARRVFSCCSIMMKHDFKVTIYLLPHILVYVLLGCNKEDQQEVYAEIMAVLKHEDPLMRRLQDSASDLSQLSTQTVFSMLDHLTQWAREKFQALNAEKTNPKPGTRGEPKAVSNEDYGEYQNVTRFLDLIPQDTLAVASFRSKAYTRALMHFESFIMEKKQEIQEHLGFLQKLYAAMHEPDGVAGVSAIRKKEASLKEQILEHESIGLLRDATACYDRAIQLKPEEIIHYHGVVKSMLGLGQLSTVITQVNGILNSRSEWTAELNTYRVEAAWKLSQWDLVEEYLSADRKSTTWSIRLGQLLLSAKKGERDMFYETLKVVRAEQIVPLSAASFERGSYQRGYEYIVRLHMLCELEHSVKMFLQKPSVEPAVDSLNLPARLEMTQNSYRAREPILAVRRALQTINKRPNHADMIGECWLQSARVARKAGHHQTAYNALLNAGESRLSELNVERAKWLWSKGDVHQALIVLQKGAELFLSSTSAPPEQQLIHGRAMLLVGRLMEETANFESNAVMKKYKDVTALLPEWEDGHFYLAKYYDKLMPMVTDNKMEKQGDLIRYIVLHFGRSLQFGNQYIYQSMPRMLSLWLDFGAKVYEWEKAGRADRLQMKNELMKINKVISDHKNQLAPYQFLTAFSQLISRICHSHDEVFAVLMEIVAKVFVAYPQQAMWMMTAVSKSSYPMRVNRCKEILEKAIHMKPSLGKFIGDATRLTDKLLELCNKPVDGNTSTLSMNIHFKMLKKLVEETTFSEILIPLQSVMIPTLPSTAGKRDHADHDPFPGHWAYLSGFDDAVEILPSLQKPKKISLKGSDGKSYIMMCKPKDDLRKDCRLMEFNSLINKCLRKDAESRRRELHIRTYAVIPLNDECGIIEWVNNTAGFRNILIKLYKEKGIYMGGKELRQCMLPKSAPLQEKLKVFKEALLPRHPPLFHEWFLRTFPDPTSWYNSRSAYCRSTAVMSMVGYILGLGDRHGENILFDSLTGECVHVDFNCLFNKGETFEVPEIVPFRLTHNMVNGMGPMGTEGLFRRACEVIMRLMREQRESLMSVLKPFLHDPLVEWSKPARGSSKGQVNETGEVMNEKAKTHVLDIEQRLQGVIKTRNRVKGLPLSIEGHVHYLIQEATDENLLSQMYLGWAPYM
Chain of Xatr-Xatrip (Xenopus laevis, UniProt Q9DE14) (Q9DE14 whole entry, the tested form may be a part): as above

On to “XtopBP1: His6-tagged full-length Xenopus TopBP1 purified from baculovirus-infected insect cells”, for which, in the data set with Xatr-Xatrip [1] (Xatr immunoprecipitated from Xatrip-depleted extracts), the “increase of kinase activity of Xatr” value is recorded as “could not significantly increase”. Further, in the data set on Xchk1 [2], the “rescue of phosphorylation of Xchk1” value is listed as “rescue the phosphorylation of Xchk1 fully”. Besides, the “half-maximal induction of kinase activity” value in the data set with Xatr-Xatrip [3] (Xatr-XatripΔN222, PHAS-I substrate, dose-response 0.5-30 μg/ml XtopBP1) lay in the range of 10 to 15 µg/mL. The “induced kinase activity toward PHAS-I” value is “could not elicit any kinase activity” in the data set with Xatr-Xatrip [3] (XatripΔN222-FLAG preparation from Xatr-depleted extracts) and “induced strong kinase activity” in the data set with Xatr-Xatrip [3] (XatripΔN222-FLAG preparation from mock-depleted extracts). Further, the “activation of Xatr kinase activity toward PHAS-I” value in the data set with Xatr-Xatrip [3] is recorded as “very large increase”. The “kinase activity toward PHAS-I of the preparation alone” value in the data set on Xatr-Xatrip [3] (recombinant XtopBP1 without Xatr-Xatrip) is recorded as “negligible kinase activity”.

In the case of `Cn1c(=O)c2c(ncn2C)n(C)c1=O` [caffeine, reference compound], at Xatr-Xatrip [1] (Xatr-XatripΔN222 activated by His6-XtopBP1, PHAS-I substrate, 0.04-5 mM caffeine, read-out: half-maximal inhibition of the XtopBP1-activated form of Xatr), the IC50 is around 400 µM.

B1: W1145R mutant: W1145R mutant of EGFP-NLS-TopBP1 (978-1286), analogous to the W1138R mutant of XtopBP1 (protein)
chain: KKKRKVAQECKHLPESLYPHTYNPKMSLDISAVQDGRLCNSRLLSAVSSTKDDEPDPLILEENDVDNMATNNKESAPSNGSGKNDSKGVLTQTLEMRENFQKQLQEIMSATSIVKPQGQRTSLSRSGCNSASSTPDSTRSARSGRSRVLEALRQSRQTVPDVNTEPSQNEQIIRDDPTAREERARLASNLQWPSCPTQYSELQVDIQNLEDSPFQKPLHDSEIAKQAVCDPGNIRVTEAPKHPISEELETPIKDSHLIPTPQAPSIAFPLANPPVAPHPREKIITIEETHEELKKQYIFQLSSLNPQERIDYCHL
modifications: left off: large carriers
notes: W1145R mutant of EGFP-NLS-TopBP1 (978-1286), analogous to the W1138R mutant of XtopBP1
As to B1, in the data set with human Mcm2 on S108, the “phosphorylation of Mcm2 on S108” value is “no effect”.

B2: W1138R mutant of GST-XtopBP1 (972-1279): point mutant of the fragment in which the tryptophan in the WDDP motif was changed to arginine (protein)
chain: EQQKRVPEALYPHTYNPKMSLDISAVQDGSYTASKFSADTSLQQDENSELQLQQNNKFGETSDDQVKKAAGDGNPQNPSKDVKGALTQTLEMRENFQRQLQEFMSATSVVKPRGSVGRAGFDNSPCTPEGARSTRNGRSRVLEALRQSRQAMTDLNTEPSQNEQIIRDDPTAREERAKLVSNLQWPDSPSQYSEQLQHNMNDAGGNYTPAKESLTDSEIAELEACEFEPKSAMRTPVIENNLQSPTKPDHLTPTPQAPSIAFPLANPPVAPQPREKPVQPFSKEETLKERRFQLSSLDPQERIDYSQL
modifications: left off: a dimerising Fc or GST; small tags and cut ends
notes: point mutant of the fragment in which the tryptophan in the WDDP motif was changed to arginine
With B2, in the data set with human ATR [4], the “activity of kinase-deficient FLAG-ATR” value is given as “neither the intact nor W1138R mutant form of GST-XtopBP1 (972-1279) had any effect”. The “kinase activity of wild-type FLAG-ATR” value in the data set with human ATR [5] was “did not induce any activation”. In the data set on Xchk1 [6], the “phosphorylation of Xchk1 in egg extracts” value is reported as “none of the ΔRQLQ, ΔWDDP, or W1138R mutants of the 972-1279 fragment could induce ectopic activation”. Also, in the data set with Xatr-Xatrip [7], the “binding of Xatr and Xatrip to glutathione beads” value is “retains significant ability to bind Xatr-Xatrip”. For the same molecule, the “activation of Xatr kinase activity toward PHAS-I” value with Xatr-Xatrip [3] is listed as “totally lost its capacity”.
